Biological target: the molecule itself
Assay: crystal structure; His-SUMO tagged P. shigelloides NagK crystallised by the microbatch method; X-ray data at 100 K

B1: N-acetylglucosamine kinase (NagK) from Plesiomonas shigelloides (enzyme)
chain: MYYGFDIGGTKIEFGAFDADLVRVARERVATPTESYAAFLDAIVTLVNNADAEFGVKGTVGIGIPGIADVETGKLLTSNIPAAMGHTLQRDLEERLQRPVKIENDANCFALSEAWDEDLRGEPSVLGLILGTGVGGGLIFNGKVHSGRANIAGEIGHTRLPYDALKLLGMENAPIFPCGCKNSGCIDNYLSGRGFEQLYDHYFSEKLSAPEIIAHYEQGERRAVQHVERFMELLAICLANIFTCLDPHVVVLGGGLSNFELIYQELPKRLPAHLLHVAKLPKIIKARHGDAGGVRGAAFLNL
notes: N-acetylglucosamine kinase NagK of Plesiomonas shigelloides, codon optimised gene in pOPINS3C; His-SUMO tagged construct (pOPINS3C) used for crystallisation; no cleavage of the tags is described; also called PsNagK; P. shigelloides NagK; source: E. coli BL21 (DE3), purified (HisTrap, Superdex 200 size exclusion); not shown: polyhistidine, N-terminal, kept; SUMO, N-terminal, kept
binding result: binds

From doi:10.1101/2021.09.30.462564 (bioRxiv, 2021)
